The results in this text go back to article PMC314469, “Protein Interaction Networks by Proteome Peptide Scanning” (PLoS Biology, 2004).

T1: amphyphisin SH3 (AMPH_HUMAN), P49418
T1 chain: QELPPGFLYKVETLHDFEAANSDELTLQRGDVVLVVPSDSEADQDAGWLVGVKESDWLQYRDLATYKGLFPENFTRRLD

B1: O75163 272-285 (peptide)
chain: EDKALPRPIRPHRN
B2: Q9NU22 363-376 (peptide)
chain: EEAALKRPEIISTV
B3: Q14202 277-290 (peptide)
chain: EDFVPFRPRRSPRM
B4: Q14203 913-927 (peptide)
chain: AERPPSKPPPVELR
B5: O60301 1-14 (peptide)
chain: EEEPPRRPRARSSE
B6: O95444 608-621 (peptide)
chain: EGISLRRPNSFGIA
B7: Q9UIG4 62-75 (peptide)
chain: EDPPPTRPSRPWRD
B8: Q9NS96 504-517 (peptide)
chain: EGEEPKRPPGISER
B9: Q9H021 747-761 (peptide)
chain: AETRPHRPPGARDS
B10: Q9NZ29 33-46 (peptide)
chain: EDAKLRRPMVIEII
B11: P78347 404-417 (peptide)
chain: EGIPFRRPSTYGIP
B12: Q9UJV1 144-158 (peptide)
chain: EDVKPFKPPLSDAE
B13: Q9HDC5 18-32 (peptide)
chain: EEKVPEKPPTPKES
B14: P39059 904-917 (peptide)
chain: EFGLPGRPGRPGLN
B15: Q8WTV4 223-236 (peptide)
chain: EDSIPKRPVSSIPL
B16: Q14767 745-758 (peptide)
chain: EEEELARPPREQGQ
B17: Q9NUD7 336-349 (peptide)
chain: EDVLLRRPKSTPDM
B18: Q9UGQ7 111-124 (peptide)
chain: EGHRPRRPRGALPP
B19: Q9NYS8 1484-1497 (peptide)
chain: EEPKILRPPRRPRK
B20: CAD38934 123-137 (peptide)
chain: EEVVPPRPPLPRSY
B21: Q9UPW0 160-173 (peptide)
chain: EDALPTRPKKRARS
B22: Q9BZ71 330-343 (peptide)
chain: EDEEPKRPLPRKQS
B23: Q92988 19-32 (peptide)
chain: EGAAPRRPGFWGSL
B24: Q8WUK7 5-18 (peptide)
chain: EGHALRRPPPRWLL
B25: Q9UGK6 43-56 (peptide)
chain: EDRLPRRPARSGGP
B26: Q15029 572-585 (peptide)
chain: EEAQIFRPLKFNTT
B27: O95444 171-184 (peptide)
chain: EGLAFRRPAEYDPK
B28: Q9H7J2 535-548 (peptide)
chain: EERPLRRPRPVQRT
B29: O15360 570-583 (peptide)
chain: EASIFRRPYYVSHF
B30: Q96T37 218-231 (peptide)
chain: AFVNFRRPEDARAA
B31: Q9UBD0 73-86 (peptide)
chain: EEASFRRPHPDGDV
B32: Q8WZ07 124-137 (peptide)
chain: EERALRRPGHLYLL
B33: Q92932 121-134 (peptide)
chain: EASSPARPSKHSVG
B34: Q9BQ84 248-261 (peptide)
chain: AFPRPKRPAPAQEA
B35: Q9BXF3 1468-1482 (peptide)
chain: EEVPPHKPPTLPLD
B36: Q9H5F4 313-326 (peptide)
chain: EEIALERPEKEIRN
B37: Q96ML3 90-103 (peptide)
chain: EGAVPRRPEDALLL
B38: Q8WYQ9 81-94 (peptide)
chain: EESLPKRPLGKHSK

For the first experiment, the target named is T1, amphyphisin SH3 (AMPH_HUMAN), P49418. As to the kind of experiment: SPOT array.
Molecule B1 came in with a normalised SPOT signal, Boehringer light units (BLU); mean over the file's lines of this peptide of 483.

For the molecule B2, the normalised SPOT signal, Boehringer light units (BLU); mean over the file's lines of this peptide is 18.

In turn, B3 gave a normalised SPOT signal, Boehringer light units (BLU); mean over the file's lines of this peptide of 20100.

With B4, the normalised SPOT signal, Boehringer light units (BLU); mean over the file's lines of this peptide was 70.7.

Consider B5, for which the normalised SPOT signal, Boehringer light units (BLU); mean over the file's lines of this peptide worked out at 4.2.

The molecule B6 registered a normalised SPOT signal, Boehringer light units (BLU); mean over the file's lines of this peptide of 27.1.

In turn, B7 had a normalised SPOT signal, Boehringer light units (BLU); mean over the file's lines of this peptide of 6800.

Turning to B8, the normalised SPOT signal, Boehringer light units (BLU); mean over the file's lines of this peptide amounted to 23.2.

As to B9, the normalised SPOT signal, Boehringer light units (BLU); mean over the file's lines of this peptide was found to be 218.

Turning to B10, the normalised SPOT signal, Boehringer light units (BLU); mean over the file's lines of this peptide was 34.7.

In turn, B11 yielded a normalised SPOT signal, Boehringer light units (BLU); mean over the file's lines of this peptide of 42.6.

The molecule B12 returned a normalised SPOT signal, Boehringer light units (BLU); mean over the file's lines of this peptide of 41.5.

Molecule B13 returned a normalised SPOT signal, Boehringer light units (BLU); mean over the file's lines of this peptide of 25.

As to B14, the normalised SPOT signal, Boehringer light units (BLU); mean over the file's lines of this peptide stood at 282.

Turning to B15, the normalised SPOT signal, Boehringer light units (BLU); mean over the file's lines of this peptide was found to be 33.5.

In turn, B16 yielded a normalised SPOT signal, Boehringer light units (BLU); mean over the file's lines of this peptide of 154.

As for B17, the normalised SPOT signal, Boehringer light units (BLU); mean over the file's lines of this peptide was 38.7.

Turning to B18, the normalised SPOT signal, Boehringer light units (BLU); mean over the file's lines of this peptide amounted to 27.1.

The molecule B19 returned a normalised SPOT signal, Boehringer light units (BLU); mean over the file's lines of this peptide of 12700.

Take B20: the normalised SPOT signal, Boehringer light units (BLU); mean over the file's lines of this peptide was found to be 109.

With B21, the normalised SPOT signal, Boehringer light units (BLU); mean over the file's lines of this peptide was determined as 672.

B22 showed a normalised SPOT signal, Boehringer light units (BLU); mean over the file's lines of this peptide of 35.6.

Molecule B23 showed a normalised SPOT signal, Boehringer light units (BLU); mean over the file's lines of this peptide of 29.7.

In the case of B24, the normalised SPOT signal, Boehringer light units (BLU); mean over the file's lines of this peptide turned out to be 66.6.

Regarding B25, the normalised SPOT signal, Boehringer light units (BLU); mean over the file's lines of this peptide stood at 9000.

As for B26, the normalised SPOT signal, Boehringer light units (BLU); mean over the file's lines of this peptide came out at 83.5.

As for B27, the normalised SPOT signal, Boehringer light units (BLU); mean over the file's lines of this peptide amounted to 29.1.

In the case of B28, the normalised SPOT signal, Boehringer light units (BLU); mean over the file's lines of this peptide was 836.

B29 came in with a normalised SPOT signal, Boehringer light units (BLU); mean over the file's lines of this peptide of 59.

Consider B30, for which the normalised SPOT signal, Boehringer light units (BLU); mean over the file's lines of this peptide is 17.2.

Regarding B31, the normalised SPOT signal, Boehringer light units (BLU); mean over the file's lines of this peptide came out at 39.7.

B32 registered a normalised SPOT signal, Boehringer light units (BLU); mean over the file's lines of this peptide of 38.2.

B33: the normalised SPOT signal, Boehringer light units (BLU); mean over the file's lines of this peptide was 231.

For the molecule B34, the normalised SPOT signal, Boehringer light units (BLU); mean over the file's lines of this peptide was 145.

In turn, B35 registered a normalised SPOT signal, Boehringer light units (BLU); mean over the file's lines of this peptide of 28.7.

Molecule B36 had a normalised SPOT signal, Boehringer light units (BLU); mean over the file's lines of this peptide of 122.

In the case of B37, the normalised SPOT signal, Boehringer light units (BLU); mean over the file's lines of this peptide came out at 72.5.

In the case of B38, the normalised SPOT signal, Boehringer light units (BLU); mean over the file's lines of this peptide stood at 32.4.

Another experiment has as its target endophilin SH3 (SH3G2_HUMAN), Q99962. The experiment in a line: SPOT array.
B1 had a normalised SPOT signal, Boehringer light units (BLU); mean over the file's lines of this peptide of 22.8.

For B2, the normalised SPOT signal, Boehringer light units (BLU); mean over the file's lines of this peptide turned out to be 15.2.

B3 had a normalised SPOT signal, Boehringer light units (BLU); mean over the file's lines of this peptide of 2630.

Molecule B4 had a normalised SPOT signal, Boehringer light units (BLU); mean over the file's lines of this peptide of 67.4.

Regarding B5, the normalised SPOT signal, Boehringer light units (BLU); mean over the file's lines of this peptide was 26.3.

B6: the normalised SPOT signal, Boehringer light units (BLU); mean over the file's lines of this peptide was determined as 51.5.

The molecule B7 registered a normalised SPOT signal, Boehringer light units (BLU); mean over the file's lines of this peptide of 382.

Regarding B8, the normalised SPOT signal, Boehringer light units (BLU); mean over the file's lines of this peptide worked out at 21.4.

In turn, B9 displayed a normalised SPOT signal, Boehringer light units (BLU); mean over the file's lines of this peptide of 1440.

The molecule B10 yielded a normalised SPOT signal, Boehringer light units (BLU); mean over the file's lines of this peptide of 74.7.

As for B11, the normalised SPOT signal, Boehringer light units (BLU); mean over the file's lines of this peptide was found to be 40.3.

As for B12, the normalised SPOT signal, Boehringer light units (BLU); mean over the file's lines of this peptide worked out at 58.1.

On to B13, for which the normalised SPOT signal, Boehringer light units (BLU); mean over the file's lines of this peptide came to 21.3.

Consider B14, for which the normalised SPOT signal, Boehringer light units (BLU); mean over the file's lines of this peptide worked out at 141.

Regarding B15, the normalised SPOT signal, Boehringer light units (BLU); mean over the file's lines of this peptide was 55.6.

The molecule B16 displayed a normalised SPOT signal, Boehringer light units (BLU); mean over the file's lines of this peptide of 150.

Consider B17, for which the normalised SPOT signal, Boehringer light units (BLU); mean over the file's lines of this peptide was determined as 16.2.

B18 displayed a normalised SPOT signal, Boehringer light units (BLU); mean over the file's lines of this peptide of 2060.

B19 displayed a normalised SPOT signal, Boehringer light units (BLU); mean over the file's lines of this peptide of 508.

For the molecule B20, the normalised SPOT signal, Boehringer light units (BLU); mean over the file's lines of this peptide turned out to be 8260.

As to B21, the normalised SPOT signal, Boehringer light units (BLU); mean over the file's lines of this peptide was 291.

Regarding B22, the normalised SPOT signal, Boehringer light units (BLU); mean over the file's lines of this peptide is 15.6.

In turn, B23 displayed a normalised SPOT signal, Boehringer light units (BLU); mean over the file's lines of this peptide of 1570.

The molecule B24 returned a normalised SPOT signal, Boehringer light units (BLU); mean over the file's lines of this peptide of 0.

The molecule B25 displayed a normalised SPOT signal, Boehringer light units (BLU); mean over the file's lines of this peptide of 9090.

B26 gave a normalised SPOT signal, Boehringer light units (BLU); mean over the file's lines of this peptide of 75.8.

For B27, the normalised SPOT signal, Boehringer light units (BLU); mean over the file's lines of this peptide was determined as 39.5.

B28: the normalised SPOT signal, Boehringer light units (BLU); mean over the file's lines of this peptide amounted to 678.

On to B29, for which the normalised SPOT signal, Boehringer light units (BLU); mean over the file's lines of this peptide stood at 211.

With B30, the normalised SPOT signal, Boehringer light units (BLU); mean over the file's lines of this peptide worked out at 51.2.

B31 came in with a normalised SPOT signal, Boehringer light units (BLU); mean over the file's lines of this peptide of 0.7.

For the molecule B32, the normalised SPOT signal, Boehringer light units (BLU); mean over the file's lines of this peptide worked out at 14.7.

Regarding B33, the normalised SPOT signal, Boehringer light units (BLU); mean over the file's lines of this peptide stood at 211.

B34 yielded a normalised SPOT signal, Boehringer light units (BLU); mean over the file's lines of this peptide of 154.

B35 showed a normalised SPOT signal, Boehringer light units (BLU); mean over the file's lines of this peptide of 59.8.

Molecule B36 displayed a normalised SPOT signal, Boehringer light units (BLU); mean over the file's lines of this peptide of 0.

As for B37, the normalised SPOT signal, Boehringer light units (BLU); mean over the file's lines of this peptide is -0.

The molecule B38 returned a normalised SPOT signal, Boehringer light units (BLU); mean over the file's lines of this peptide of 201.
